Source: PMC11774777, “A PDZ-kinase allosteric relay mediates Par complex regulator exchange” (The Journal of Biological Chemistry, 2024)
Like-named read-outs stand apart in the source and are kept apart here.

Columns and labels:
[1] = biological target: T1, GST-fused Par-3 PDZ2 with its associated basic region (BR-PDZ2) (UniProt O96782 1-1464)
T1 chain: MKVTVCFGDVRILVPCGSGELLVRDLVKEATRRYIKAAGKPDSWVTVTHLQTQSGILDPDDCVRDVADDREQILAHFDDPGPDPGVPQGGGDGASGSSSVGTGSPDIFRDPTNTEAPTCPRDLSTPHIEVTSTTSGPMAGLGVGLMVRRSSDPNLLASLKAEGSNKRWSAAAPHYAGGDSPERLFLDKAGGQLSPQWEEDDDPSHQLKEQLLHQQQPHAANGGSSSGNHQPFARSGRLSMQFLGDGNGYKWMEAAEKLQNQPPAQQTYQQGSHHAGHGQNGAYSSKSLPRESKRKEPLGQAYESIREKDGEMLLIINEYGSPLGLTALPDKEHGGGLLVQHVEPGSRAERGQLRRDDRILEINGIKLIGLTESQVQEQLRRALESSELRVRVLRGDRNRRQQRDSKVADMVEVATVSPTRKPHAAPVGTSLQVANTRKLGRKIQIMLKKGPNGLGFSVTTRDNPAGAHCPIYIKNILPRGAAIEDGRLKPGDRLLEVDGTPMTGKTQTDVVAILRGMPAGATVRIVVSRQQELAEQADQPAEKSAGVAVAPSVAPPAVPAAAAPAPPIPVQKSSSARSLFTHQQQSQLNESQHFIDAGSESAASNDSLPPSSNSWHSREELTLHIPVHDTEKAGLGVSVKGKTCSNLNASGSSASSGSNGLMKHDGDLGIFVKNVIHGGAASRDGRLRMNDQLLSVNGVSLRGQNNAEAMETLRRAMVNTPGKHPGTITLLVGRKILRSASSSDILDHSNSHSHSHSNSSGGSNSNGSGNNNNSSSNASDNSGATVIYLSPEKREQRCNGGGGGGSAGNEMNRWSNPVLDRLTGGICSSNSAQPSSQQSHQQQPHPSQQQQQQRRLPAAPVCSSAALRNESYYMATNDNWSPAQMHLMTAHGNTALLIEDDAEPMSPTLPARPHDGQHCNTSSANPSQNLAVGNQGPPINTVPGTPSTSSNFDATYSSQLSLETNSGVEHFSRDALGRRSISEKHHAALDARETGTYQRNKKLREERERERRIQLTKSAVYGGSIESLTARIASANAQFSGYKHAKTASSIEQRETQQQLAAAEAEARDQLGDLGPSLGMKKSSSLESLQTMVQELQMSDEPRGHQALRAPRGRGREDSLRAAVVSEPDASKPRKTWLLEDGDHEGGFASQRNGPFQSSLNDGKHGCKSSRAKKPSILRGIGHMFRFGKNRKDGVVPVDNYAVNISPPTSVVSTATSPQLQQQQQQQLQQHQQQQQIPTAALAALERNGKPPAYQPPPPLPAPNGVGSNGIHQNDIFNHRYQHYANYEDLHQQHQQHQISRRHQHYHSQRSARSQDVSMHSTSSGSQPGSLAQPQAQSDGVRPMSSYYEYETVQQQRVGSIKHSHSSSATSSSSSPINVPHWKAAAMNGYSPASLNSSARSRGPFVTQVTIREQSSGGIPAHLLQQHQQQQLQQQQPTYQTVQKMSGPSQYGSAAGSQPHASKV

[2] = biological target: T2, GST-fused Par-6 CRIB-PDZ (UniProt O97111 130-255); test: pull-down; GST-Par-6 CRIB-PDZ on glutathione resin, Par complex ΔCRIB-PDZ with soluble Par-3 BR-PDZ2 added; same buffer, 60 min at RT; Coomassie, normalized band intensity of aPKC; conditions: both partners purified
T2 construct: Par-6, CRIB motif and PDZ domain; also called GST Par-6 CRIB-PDZ
T2 sequence (looked up): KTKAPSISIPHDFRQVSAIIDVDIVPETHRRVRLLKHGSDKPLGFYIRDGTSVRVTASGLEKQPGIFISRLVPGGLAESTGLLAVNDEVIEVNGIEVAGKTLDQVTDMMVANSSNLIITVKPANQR

[3] = biological target: T1, GST-fused Par-3 PDZ2 with its …; test: with Par-6 CRIB-PDZ added in trans

B1: Par complex ΔCRIB-PDZ (full-length aPKC plus the Par-6 PB1 domain) (complex)
chain 1: MQKMPSQILNDGSSVSLNSASMNMANTPNSITVKTAYNGQIIITTINKNISYEELCYEIRNICRFPLDQPFTIKWVDEENDPCTISTKMELDEAIRLYEMNFDSQLVIHVFPNVPQAPGLSCDGEDRSIYRRGARRWRKLYRVNGHIFQAKRFNRRAFCAYCQDRIWGLGRQGFKCIQCKLLVHKKCHKLVQKHCTDQPEPLVKERAEESSDPIPVPLPPLPYEAMSGGAEACETHDHAHIVAPPPPEDPLEPGTQRQYSLNDFELIRVIGRGSYAKVLMVELRRTRRIYAMKVIKKALVTDDEDIDWVQTEKHVFETASNHPFLVGLHSCFQTPSRLFFVIEFVRGGDLMYHMQRQRRLPEEHARFYAAEISLALNFLHEKGIIYRDLKLDNVLLDHEGHIKLTDYGMCKEGIRPGDTTSTFCGTPNYIAPEILRGEDYGFSVDWWALGVLLYEMLAGRSPFDLAGASENPDQNTEDYLFQVILEKTIRIPRSLSVRAASVLKGFLNKNPADRLGCHRESAFMDIVSHPFFKNMDWELLERKQVTPPFKPRLDSDRDLANFPPEFTGEAVQLTPDDDHVIDNIDQSEFEGFEYVNPLLMSLEDCV
chain 2: MSKNKINTTSATAASDTNLIEVKSKFDAEFRRWSFKRNEAEQSFDKFASLIEQLHKLTNIQFLILYIDPRDNDLLPINNDDNFGRALKTARPLLRVIVQRKDDLNEYSGFGTMKPRNLIGSILMGHTPV
notes: atypical PKC (aPKC), full length; Par-6, PB1 domain; The complex was His-purified; also called full-length aPKC with Par-6 PB1; source: HEK 293F, co-transfected, purified (cobalt resin, anion exchange)
Kd [1]: 161 µM
fold increase of binding with Par-3 PDZ2 against without Par-3 [2]: > 20 fold
Kd [3]: 11.3 µM
